Entries after “also recorded” stand apart in the source; their conditions may differ. Where two headings read alike, the source gives them in different places.
Columns and labels:
[1] = system: PNAG-overproducing E. coli; assay: Inhibition of PNAG-dependent E. coli biofilm formation (crystal violet); conditions: read-out: EC50 of E. coli biofilm formation prevention, static 24 h at 26° C.
Procedure: In brief, PNAG-overproducing E. coli or S. carnosus was grown at 37° C. overnight in LB broth supplement with 200 μg/mL ampicillin and 100 μg/mL kanamycin, and 10 μg/mL tetracycline, respectively, with shaking at 200 rpm. Fresh cultures with antibiotic were prepared from the overnight culture using a 1:100 dilution, using LB broth for E. coli, and tryptic soy broth for S. carnosus. 95 μL of diluted culture was added to a sterile 96-well polystyrene round bottom microtiter plate and varying concentrations of protein (2 nM-5 μM) were added in 5 μL aliquots to give a final volume of 100 μL. The cultures were incubated statically for 24 h at 26° C. for E. coli, and 37° C. for S. carnosus, to allow for biofilm formation. To eliminate edge-effects, ˜200 μL of sterile water was placed in all outside wells and the plate was sealed with parafilm. After incubation non-adherent cells and media were removed by washing the plate with deionized water three times. The wells were stained with 150 μL of 0.1% (w/v) crystal violet for 10 min, and washed with water three times. The remaining dye was solubilized with 100 μL of 33% (v/v) acetic acid for 10 min with rotation, after which time the absorbance was measured at 595 nm using a SpectraMax M2 from Molecular Devices (Sunnyvale, Calif.). […] All reactions were completed in at least triplicates and buffer G was used as an untreated control. Either an E. coli pgaABCD knockout strain (DPGA) or S. carnosus treated with gentamycin, was used as a control for background straining.

[2] = Reducing sugar assay on dPNAG; format: biochemical, S. aureus
Procedure: Isolated dPNAG from S. aureus strain MN8m was solubilized in 6 N HCl at ˜10 mg/mL. 10 N NaOH was used to titrate the re-suspension until neutrality was reached, ˜pH 7-8. In a 50 μL reaction, 1 μM BpsB318-670 was incubated with 1-5 mg/mL of dPNAG in 100 mM HEPES pH 7.0 for 18 hours. The sample was split into two 20 μL aliquots and treated with DTT/3-Methyl-2-benzothiazolinone hydrazone hydrochloride hydrate and heated at 80° C. for 15 minutes. A solution of 0.5% (w/w) iron (III) ammonium sulfate dodecahydrate, 0.5% (w/w) sulfamic acid, and 0.25 N hydrochloric acid was added, mixed, and cooled to room temperature. […] Protein and dPNAG in buffer H were used as background controls.

[3] = system: PNAG-overproducing E. coli biofilms; assay: Dispersal of pre-formed PNAG-dependent E. coli biofilms; conditions: read-out: EC50 of degradation of pre-formed E. coli biofilm; 60 min, average starting OD595 of 0.5
Procedure: Bacterial cultures expressing Psl were inoculated as stated above and were grown at 37° C. overnight with shaking at 200 rpm. All cultures were diluted in 1:100 in LB and arabinose was added to a final concentration of 0.5% (w/v) to induce Psl biosynthesis. Media containing the Psl-producing cultures were supplemented with 200 μg/mL ampicillin and 100 μg/mL kanamycin. The cultures were incubated statically for 24 h at 26° C. to allow for biofilm formation. After incubation non-adherent cells and media were removed by washing the plate with deionized water three times. The wells were filled with 95 μL of 100 mM sodium HEPES buffer pH 7.0 followed by 5 μL of varying concentrations of each hydrolytic enzyme (2 nM-5 μM). Reactions were allowed to proceed for up to 60 min at 25° C. on a rotating nutator at which time, the reaction was quenched by washing the plates with deionized water. The wells were stained with 200 μL of 0.1% (w/v) crystal violet for 10 min, and washed with water three times. Crystal violet dye from Psi cultures was solubilized in 100 μL of 95% ethanol for 10 min with rotation, after which time the absorbance was measured at 595 nm using a SpectraMax M2 from Molecular Devices (Sunnyvale, Calif.). The amount of biofilm is proportional to the absorbance from staining with crystal violet (Merritt et al 2005). All reactions were completed in at least triplicate and 100 mM sodium HEPES buffer pH 7.0 was used as an untreated control. The addition of 2.5 mg/mL kanamycin to culture prior to biofilm formation was used as a positive control as no cell growth occurs.
PNAG-overproducing E. coli was grown at 37° C. overnight in LB broth supplement with 200 ug/mL ampicillin and 100 ug/mL kanamycin with shaking at 200 rpm. An E. coli μgaABCD knockout strain was used as a non-biofilm forming control for background straining.

[4] = purified protein
[5] = system: pre-formed A. fumigatus GAG biofilms; format: cell-based; conditions: for dispersal of pre-formed GAG biofilm (in words): crystal violet
[6] = system: A549 pulmonary epithelial cell line injured by A. fumigatus; assay: Chromium release epithelial cell damage assay; conditions: recombinant Sph3 hydrolases, up to 24 h
Procedure: The immortalized airway epithelial cell line A549 was loaded with chromium-51 by incubating monolayers grown in 24-well tissue culture plates with 3 mCi of ^51Cr at 37° C. in 5% CO2 for 24 h. Excess chromium was removed by washing with Hank's Balanced Salt Solution (HBSS). […] For testing germ tubes, conidia were grown for 7 h in SAB media at 37° C., then the fungus was collected and resuspended in DF12K media before 0.5 μM of hydrolase was added. The germ tubes were incubated with hydrolase for 1 h before being added to the A549 cells. After 16, 20 and 24 h of co-incubation, an aliquot of the medium above the cells was retrieved and replaced with fresh media. The cells were then lysed with 6 N NaOH and the lysate collected. The ^51Cr content of the medium and lysates was then measured in a gamma counter and the extent of epithelial cell damage was calculated as a function of the degree of ^51Cr release. Each strain was tested in triplicate, and all results were corrected for spontaneous chromium release by uninfected epithelial cells.
The methodology for prevention of epithelial cell damage caused by A. fumigatus using Sph352-298 is identical to that previously described in Example 19 for the use PelA47-303.

A. fumigatus GAG biofilm = assay: Inhibition of GAG-dependent A. fumigatus biofilm formation (crystal violet); format: cell-based
[7] = Reducing sugar assay on purified GAG; format: biochemical, A. fumigatus; conditions: 10-20 μM protein, 26° C., 24 h
Procedure: Crude GAG was isolated from A. fumigatus biofilms. 200 μL GAG aliquots were centrifuged to pellet the gelatinous fraction. The pellets were washed twice with 350 μL PBS. The wash procedure included vortexing for 5 min, sonicated in a bath for 3 min, and manual mixing by pipetting to reach homogeneity. The final pellet was resuspended in 200 μL of PBS. Samples were treated with 10-20 μM protein and incubated at 26° C. Samples were taken at 24 h. GAG hydrolysis was quantified using a reducing sugar assay as described previously (Anthon & Barrett 2002) with slight modifications. Briefly, 20 μL of enzyme reaction was mixed with 20 μL of 0.5 M NaOH and 20 μL of MBTH/DTT solution (1.5 mg/L 3-methyl-2-benzothiazolinone hydrazine (MBTH) and 0.5 mg/L DTT). The samples were incubated at 80° C. for 15 min before the addition of 40 μL of acidic iron reagent (0.5% (FeNH4(SO4)2).12 H2O, 0.5% sulfamic acid, and 0.25 N HCl). Samples were diluted two-fold in water, before the absorbance was quantified at 620 nm.

Row | Molecule | EC50 [1] [nM] | dPNAG hydrolysis (in words) [2] | EC50 [3] [nM] | concentration to which the protein could be concentrated [4] [µg/mL] | dispersal of pre-formed GAG biofilm (in words) [5] | epithelial cell damage by A. fumigatus, chromium release [6] | inhibition of A. fumigatus biofilm formation by recombinant Sph3 (in words) (A. fumigatus GAG biofilm) | further results
1 | BpsB27-701: full-length BpsB residues 27-701, B. bronchiseptica RB50, SEQ ID NO: 18 (protein, listed as Bordetella bronchiseptica) YKVDMLPPPDPDDGLTFRVLCMHDVRDNLRASFADMPDQFAIETRTLTDLFEWIRVKGFNPISMQQIIDSRAGVRPLPPRPILLTFDDGYASTYTKVFPLLKKFNYPAVVAVVTSWTDAPAGTKIRLSPKIEVPHDFFMTWAQLREMAQSGLVELASHSHNLHRGVLANPQGNEQPAASSRQYLPASGRYENDAEYRARVRQDLKTSADLIREHTGVTIRSIVWPYGAHNRDTDQVAAEVGLNIGLTLQPGPNTPDVALTQIRRSLVDYEVNVATVARAMREPVSYHGQVRPIERIVQVDLDYIYDPDPEQQNRNLGQLIDRMKDLAPSAVYLQAFADPKGDGDITEVYFPNRHLPMRADLFNRVAWQLKTRAGVMVYAWLPVLTFSVPPGNPAYGKVVQSTTRKPGERGLGSPTRLSPFHPDAHRVISEIYEDLAKAAHFDGLLFHDDAVLDDTEDSSPEALATYQGWGLPPDIAAIRADPKLAQQWSKGKIRYLIDFTMHLRHIVSGYQNDRDMVVARNLYAQPVLDPVSEAWYGQSLPEFLKSYDFVALMAMPNMEGAARPEQWMRQLVAAVARQKGLDRTIFELQARDWRVGKPIDTEILRRQMVQLRSLGAINYGYYPDDFIANHPDAEALRDVMSLKSTLEKRRLTKAQELSRQTTLYGSASQAEPTQR | ~40 | hydrolyze dPNAG | ~170 | – | – | – | – | –
2 | PgaB22-672: PgaB residues 22-672, E. coli K-12 MG1655, SEQ ID NO: 16 (protein, listed as Escherichia coli) ISQSRTSFIPPQDRESLLAEQPWPHNGFVAISWHNVEDEAADQRFMSVRTSALREQFAWLRENGYQPVSIAQIREAHRGGKPLPEKAVVLTFDDGYQSFYTRVFPILQAFQWPAVWAPVGSWVDTPADKQVKFGDELVDREYFATWQQVREVARSRLVELASHTWNSHYGIQANATGSLLPVYVNRAYFTDHARYETAAEYRERIRLDAVKMTEYLRTKVEVNPHVFVWPYGEANGIAIEELKKLGYDMFFTLESGLANASQLDSIPRVLIANNPSLKEFAQQIITVQEKSPQRIMHIDLDYVYDENLQQMDRNIDVLIQRVKDMQISTVYLQAFADPDGDGLVKEVWFPNRLLPMKADIFSRVAWQLRTRSGVNIYAWMPVLSWDLDPTLTRVKYLPTGEKKAQIHPEQYHRLSPFDDRVRAQVGMLYEDLAGHAAFDGILFHDDALLSDYEDASAPAITAYQQAGFSGSLSEIRQNPEQFKQWARFKSRALTDFTLELSARVKAIRGPHIKTARNIFALPVIQPESEAWFAQNYADFLKSYDWTAIMAMPYLEGVAEKSADQWLIQLTNQIKNIPQAKDKSILELQAQNWQKNGQHQAISSQQLAHWMSLLQLNGVKNYGYYPDNFLHNQPEIDLIRPEFSTAWYPKND | ~90 | hydrolyze dPNAG | > 1000 | – | – | – | – | –
3 | PgaB310-672: PgaB C-terminal hydrolase domain residues 310-672, SEQ ID NO: 17 (protein, listed as Escherichia coli) EKSPQRIMHIDLDYVYDENLQQMDRNIDVLIQRVKDMQISTVYLQAFADPDGDGLVKEVWFPNRLLPMKADIFSRVAWQLRTRSGVNIYAWMPVLSWDLDPTLTRVKYLPTGEKKAQIHPEQYHRLSPFDDRVRAQVGMLYEDLAGHAAFDGILFHDDALLSDYEDASAPAITAYQQAGFSGSLSEIRQNPEQFKQWARFKSRALTDFTLELSARVKAIRGPHIKTARNIFALPVIQPESEAWFAQNYADFLKSYDWTAIMAMPYLEGVAEKSADQWLIQLTNQIKNIPQAKDKSILELQAQNWQKNGQHQAISSQQLAHWMSLLQLNGVKNYGYYPDNFLHNQPEIDLIRPEFSTAWYPKND | ~230 | hydrolyze dPNAG | 200 | 8000 to 10000 | – | – | – | –
4 | GmetPelA23-277: PelA ortholog, residues 23-277, from Geobacter metallireducens, SEQ ID NO: 14 (protein, listed as Geobacter metallireducens) PPLSVALYYGKQPPVNDLHAFDIVVIDPDSGLTPSEYGSGRSELFAYVSVGEADTARSYTKQMPDRWIIGKNPVWKSKIVDVSSEEWKQFFLDDVVEPLWQAGYRGFFLDTLDSYLIAAPTEAHPRMEAGLVSVVRAIRQRHPEARLILNRGFEIFDRVKDLVYAVAAESLFQNFNTVSGKYGAVDDKDRSWLTSRLNVIRETGVPVIAIDYVDPGNRPLMRETADKIRSLGFTPWVTDKDLAGLGIGSVEVMPRTVLGLYDGGEGAG | – | – | – | – | less efficacious | – | – | dispersal of pre-formed GAG biofilm (in words) ([5]; listed as GmPelA23-277): less effective at eliminating GAG biofilms
5 | Sph352-298: soluble Sph3 residues 52-298, Aspergillus fumigatus Af293, SEQ ID NO: 20 (protein, listed as Aspergillus fumigatus) SKVFVPLYVYPAPGAWTPLEDVISKHPDVNFTVVINPGSGPGPNALPDGNYTREIPKLASYENVRLLGYVATTYAKRNISLVRRDIETYAAWPTNSSNPALAVRGIFFDETPQQYDEDALAYLQELTDVVKNTPGLGPDHYVVHNPGAIPDSRYLSTADSTVVFEATYDTFQERHGAKLFEAIPDSNRSQLCAVIHSVPESVEGSALRSLVKQVRKVADEIFITHLDTDYYASFGRQWPEFVDLMGK | – | – | – | 8000 to 10000 | elimination of the GAG biofilms; also recorded: capable of disrupting GAG-dependent biofilms | reduced fungal damage to epithelial cells | inhibit the formation of A. fumigatus biofilms in a dose dependent manner | activity against preformed biofilms of multiple A. fumigatus strains / clinical isolates [5]: dose-dependent activity; also recorded: active against multiple strains of A. fumigatus; concentration sufficient at preventing GAG biofilm formation ([5]; FIG. 36, crystal violet): 280 nM; GAG hydrolysis, reducing ends (in words) [7]: number of reducing ends in solution increased
6 | Sph3AN(43-299): Sph3 ortholog residues 43-299, Aspergillus nidulans FGSC A4, SEQ ID NO: 23 (protein, Aspergillus nidulans) RRKNNNMGPKAKVFVPLYVYPAPGAWDPLVNVITAHPDVNFTVVVNPGSGPGPNPLPDRNYTQEIPRLTAHDNVRVLGYVATTYAKRNISSVRNDIETYAAWPTISANPKLAVRGIFFDETPQQYNASDLAYLEELTSVVKNTPGLGPDHFVFHNPGVVPDPRYLSTADSTVVFEATYDTFQDRDGARLFETIPNSNRSQLCAVVHSVPDSVEGSELRKFVKQARRVADEIFVTHLSTNYYASFGDKWDDFVRLMAQ | – | – | – | – | – | completely protected epithelial cells from damage by A. fumigatus for 24 h | inhibit the formation of A. fumigatus biofilms in a dose dependent manner | epithelial cell damage by A. fumigatus, chromium release ([6]; listed as Sph3 from A. nidulans): reduced fungal damage to epithelial cells

Reference: patent US11672846B2, “Soluble bacterial and fungal proteins and methods and uses thereof in inhibiting and dispersing biofilm” (priority 2014, dated 2023)
